# Tests used:
# [1] = tested on: TALEN right R17 of FIG. 4B (Comparative Example 1) (synthetic construct); experiment: cell_activity; conditions: SSA assay HEK293T, reference pair with L20
# [2] = tested on: TALEN left L20 of FIG. 4B (Comparative Example 1) (synthetic construct); experiment: cell_activity; conditions: SSA assay HEK293T, reference pair with R17
sequence,measurement,setting,value
TCCATTCCTATGACTGTAGATTTTTATCAGACTGAAGAGCTATTGTGTGAGTATA (double strand) [FIG. 4B TALEN target],activity,[1],1 relative
same,activity,[2],1 relative
